Assay results: patent publication US6660837

Assays:
[1] = biological target: [γ-32P]GTP·GST-RhoA (human) (UniProt P61586); assay: cell-based or functional assay
[2] = test system: [Ser^46] PKN (39-53) peptide

Sequence of [γ-32P]GTP·GST-RhoA (human) (P61586 whole entry): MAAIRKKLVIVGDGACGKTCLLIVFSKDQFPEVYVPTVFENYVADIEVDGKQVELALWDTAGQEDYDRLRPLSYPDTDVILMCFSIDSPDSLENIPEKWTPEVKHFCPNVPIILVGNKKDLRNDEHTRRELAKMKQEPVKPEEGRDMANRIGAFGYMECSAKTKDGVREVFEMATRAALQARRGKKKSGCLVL

| Substance | half life of GTP bound to RhoA (endogenous GTPase activity) [1] [min] | Km (phosphorylation of the peptide by PKN) [2] |
| --- | --- | --- |
| GST-PKN (N-terminal region of human PKN, amino acid sequence 1-538, fused to GST) (from UniProt Q16512 1-538) | > 15 |  |
| PKN purified from rat testis cytosol |  | a Km of approximately 25 µM |
